Data: US20250250357A1 (NANJING ZAIMING PHARMACEUTICAL, published 2025)

What was measured:
[1] = molecular target: T1, human MSLN protein endogenously expressed on OVCAR3 tumor cells (human, UniProt Q13421 296-598); assay: FACS on OVCAR3 cells
T1 construct: whole, on cells; Endogenous target on OVCAR3 cells; kept apart from the recombinant full-length construct; also called mesothelin

[2] = molecular target: T2, human MSLN-R3 protein (Met487-Ser606 of NCBI AAH09272.1) expressed on HEK293T-hMSLN-R3 cells (human, UniProt Q13421 487-606); assay: FACS on HEK293T-hMSLN-R3 cells
T2 construct: also called Region3

[3] = molecular target: T3, human MSLN full-length protein (NCBI: AAH09272.1) expressed on HEK293T-hMSLN-B8 cells (human, UniProt Q13421 296-598); assay: FACS on HEK293T-hMSLN-B8 cells
T3 construct: Whole encoded precursor

[4] = molecular target: T4, human MSLN-R3-his protein (human, UniProt Q13421 487-598); assay: ELISA on coated antigen, antibody 2 nM
T4 construct: it is put last here; also called human MSLN-R3 protein; hMSLN-R3-his; not shown: His tag

[5] = molecular target: T5, human MSLN-R2-his protein (human, UniProt Q13421 391-486); assay: ELISA on coated antigen, antibody 0.002 nM
T5 construct: it is put last here; also called human MSLN-R2 protein; hMSLN-R2-his; not shown: His tag

[6] = molecular target: T4, human MSLN-R3-his protein; assay: ELISA on coated antigen, no antibody (blank, column 'none')
[7] = molecular target: T4, human MSLN-R3-his protein; assay: ELISA on coated antigen, antibody 20 nM
[8] = molecular target: T5, human MSLN-R2-his protein; assay: ELISA on coated antigen, antibody 0.2 nM
[9] = molecular target: T5, human MSLN-R2-his protein; assay: ELISA on coated antigen, antibody 2 nM
[10] = molecular target: T4, human MSLN-R3-his protein; assay: ELISA on coated antigen, antibody 0.002 nM
[11] = molecular target: T5, human MSLN-R2-his protein; assay: ELISA on coated antigen, antibody 200 nM
[12] = molecular target: T5, human MSLN-R2-his protein; assay: ELISA on coated antigen, no antibody (blank, column 'none')
[13] = molecular target: T4, human MSLN-R3-his protein; assay: ELISA on coated antigen, antibody 0.0002 nM
[14] = molecular target: T5, human MSLN-R2-his protein; assay: ELISA on coated antigen, antibody 0.02 nM
[15] = molecular target: T5, human MSLN-R2-his protein; assay: ELISA on coated antigen, antibody 0.0002 nM
[16] = molecular target: T4, human MSLN-R3-his protein; assay: ELISA on coated antigen, antibody 0.02 nM
[17] = molecular target: T5, human MSLN-R2-his protein; assay: ELISA on coated antigen, antibody 20 nM
[18] = molecular target: T4, human MSLN-R3-his protein; assay: ELISA on coated antigen, antibody 0.2 nM
[19] = molecular target: T4, human MSLN-R3-his protein; assay: ELISA on coated antigen, antibody 200 nM
[20] = molecular target: T6, human MSLN-hFc protein (Acro, Cat. No. MSN-H5253) (human, UniProt Q13421 296-580); assay: ELISA on coated antigen, antibody 100 nM
T6 construct: the method names the coated protein as human MSLN-hFc (Acro); also called human MSLN full-length protein

human MSLN-R3 protein [21] = molecular target: T7, human MSLN-R3 protein (human, UniProt Q13421 487-598); assay: ELISA on coated antigen, antibody 0.001 nM
T7 construct: also called hMSLN-R3

[22] = molecular target: T6, human MSLN-hFc protein (Acro, Cat. No. …); assay: ELISA on coated antigen, antibody 0.001 nM
human MSLN-R3 protein [23] = molecular target: T7, human MSLN-R3 protein; assay: ELISA on coated antigen, antibody 1 nM
[24] = molecular target: T6, human MSLN-hFc protein (Acro, Cat. No. …); assay: ELISA on coated antigen, antibody 0.1 nM
human MSLN-R3 protein [25] = molecular target: T7, human MSLN-R3 protein; assay: ELISA on coated antigen, antibody 0.1 nM
human MSLN-R3 protein [26] = molecular target: T7, human MSLN-R3 protein; assay: ELISA on coated antigen, antibody 10 nM
[27] = molecular target: T6, human MSLN-hFc protein (Acro, Cat. No. …); assay: ELISA on coated antigen, antibody 1 nM
[28] = molecular target: T6, human MSLN-hFc protein (Acro, Cat. No. …); assay: ELISA on coated antigen, antibody 0.01 nM
[29] = molecular target: T6, human MSLN-hFc protein (Acro, Cat. No. …); assay: ELISA on coated antigen, antibody 0.0001 nM
human MSLN-R3 protein [30] = molecular target: T7, human MSLN-R3 protein; assay: ELISA on coated antigen, antibody 0.0001 nM
[31] = molecular target: T6, human MSLN-hFc protein (Acro, Cat. No. …); assay: ELISA on coated antigen, antibody 10 nM
human MSLN-R3 protein [32] = molecular target: T7, human MSLN-R3 protein; assay: ELISA on coated antigen, antibody 100 nM
human MSLN-R3 protein [33] = molecular target: T7, human MSLN-R3 protein; assay: ELISA on coated antigen, antibody 0.01 nM

T5 sequence (Q13421 other isoform, or with tags, fused parts or gaps): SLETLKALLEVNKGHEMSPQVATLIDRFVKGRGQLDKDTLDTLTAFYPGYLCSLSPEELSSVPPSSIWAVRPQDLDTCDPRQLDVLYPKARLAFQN
T3 sequence (Q13421 other isoform, or with tags, fused parts or gaps limits assumed): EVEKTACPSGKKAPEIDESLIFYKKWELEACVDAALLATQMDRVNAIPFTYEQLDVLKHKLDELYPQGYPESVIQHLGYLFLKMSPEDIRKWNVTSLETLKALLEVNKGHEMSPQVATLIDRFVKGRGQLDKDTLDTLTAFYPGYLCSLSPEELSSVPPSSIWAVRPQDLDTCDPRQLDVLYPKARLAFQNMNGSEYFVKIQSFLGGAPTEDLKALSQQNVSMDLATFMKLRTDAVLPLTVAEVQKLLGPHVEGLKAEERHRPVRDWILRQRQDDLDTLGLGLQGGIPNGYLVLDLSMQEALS
T7 sequence (Q13421 495-606, form in doubt): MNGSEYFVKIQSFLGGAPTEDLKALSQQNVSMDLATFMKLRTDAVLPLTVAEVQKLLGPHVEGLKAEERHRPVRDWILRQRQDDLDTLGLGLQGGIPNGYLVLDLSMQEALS
T4 sequence (Q13421 495-606): as the sequence (Q13421 495-606, form in doubt) above
T1 sequence (Q13421 other isoform, or with tags, fused parts or gaps): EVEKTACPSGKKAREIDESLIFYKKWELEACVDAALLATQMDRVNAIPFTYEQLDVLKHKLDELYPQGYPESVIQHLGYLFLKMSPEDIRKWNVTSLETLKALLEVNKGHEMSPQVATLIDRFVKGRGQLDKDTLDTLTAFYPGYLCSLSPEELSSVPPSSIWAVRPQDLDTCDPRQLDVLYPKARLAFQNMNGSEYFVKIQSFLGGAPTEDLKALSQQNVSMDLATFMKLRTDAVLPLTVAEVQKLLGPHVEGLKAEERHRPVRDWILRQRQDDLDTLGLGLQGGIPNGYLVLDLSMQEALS
T2 sequence (Q13421 495-614): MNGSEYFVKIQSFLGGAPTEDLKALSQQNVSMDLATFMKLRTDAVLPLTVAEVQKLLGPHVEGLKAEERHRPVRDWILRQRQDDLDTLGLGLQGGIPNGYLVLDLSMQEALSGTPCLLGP
T6 sequence (Q13421 other isoform, or with tags, fused parts or gaps limits assumed): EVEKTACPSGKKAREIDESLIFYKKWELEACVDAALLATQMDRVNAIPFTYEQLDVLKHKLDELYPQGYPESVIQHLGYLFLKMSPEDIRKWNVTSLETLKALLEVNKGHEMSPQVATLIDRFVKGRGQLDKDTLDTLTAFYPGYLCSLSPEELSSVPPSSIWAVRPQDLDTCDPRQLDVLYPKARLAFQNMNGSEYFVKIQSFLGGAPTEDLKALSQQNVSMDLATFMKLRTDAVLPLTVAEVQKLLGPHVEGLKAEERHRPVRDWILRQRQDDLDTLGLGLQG

| OD450 [20] [OD450] | OD450 (human MSLN-R3 protein [21]) [OD450] | OD450 [22] [OD450] | OD450 (human MSLN-R3 protein [23]) [OD450] | OD450 [24] [OD450] | OD450 (human MSLN-R3 protein [25]) [OD450] | OD450 (human MSLN-R3 protein [26]) [OD450] | OD450 [27] [OD450] | OD450 [28] [OD450] | OD450 [29] [OD450] | OD450 (human MSLN-R3 protein [30]) [OD450] | OD450 [31] [OD450] | OD450 (human MSLN-R3 protein [32]) [OD450] | OD450 (human MSLN-R3 protein [33]) [OD450] | Binder | also measured |
| --- | --- | --- | --- | --- | --- | --- | --- | --- | --- | --- | --- | --- | --- | --- | --- |
| – | – | – | – | – | – | – | – | – | – | – | – | – | – | S009-F2.38.12 (antibody, human IgG1, kappa, V domains shown, human-murine chimeric antibody, human IgG1/kappa constant regions) VH: QVQLQQPGTELVKPGASVKLSCKASGYTFTSYWMHWVKQRPGQGLEWIGNINPSNGGTNYNEKIKNKATLTVDKSSSTAYMQLSSLTSEDSAVYYCARWNYYGNYPFDYWGQGTTLTVSS VL: DIVMTQSQKFMSTTVGDRVSITCKASQNVGTAVAWYQQKPGQSPKLLIYSASNRYTGVPDRFTGSGSGTDFTLTISNMQSEDLADYFCQQYSSYPLTFGAGTKLELKR | Maximum mean fluorescence intensity [1]: 4510; Maximum mean fluorescence intensity [2]: 136; binding result [2]: no binding; EC50 [3]: ~0.82 nM; Maximum mean fluorescence intensity [3]: 97700 |
| – | – | – | – | – | – | – | – | – | – | – | – | – | – | Tab106 (YP218, hIgG1) (antibody, V domains shown, Control antibody; YP218 VH and VL recombined into human IgG1 CH and CL expression vectors; also called YP218 human IgG1 antibody) VH: QQQLEESGGGLVKPEGSLTLTCKASGFDLGFYFYACWVRQAPGKGLEWIACIYTAGSGSTYYASWAKGRFTISKASSTTVTLQMTSLAAADTATYFCARSTANTRSTYYLNLWGPGTLVTVSS VL: DVVMTQTPASVSEPVGGTVTIKCQASQRISSYLSWYQQKPGQRPKLLIFGASTLASGVPSRFKGSGSGTEYTLTISDLECADAATYYCQSYAYFDSNNWHAFGGGTEVVVRT | OD450 [4]: 2.33 OD; OD450 [5]: 0.11 OD; OD450 [6]: 0.06 OD; OD450 [7]: 2.26 OD; OD450 [8]: 0.47 OD; OD450 [9]: 1.42 OD; OD450 [10]: 0.65 OD; OD450 [11]: 2.54 OD; OD450 [12]: 0.07 OD; OD450 [13]: 0.35 OD; OD450 [14]: 0.17 OD; OD450 [15]: 0.12 OD; OD450 [16]: 0.97 OD; OD450 [17]: 2.42 OD; OD450 [18]: 1.9 OD; OD450 [19]: 2.12 OD |
| 3.04 | 0.05 | 0.05 | 1.16 | 0.22 | 0.16 | 2.27 | 1.46 | 0.06 | 0.05 | 0.05 | 2.94 | 2.3 | 0.06 | F7.44.20-H1 (scFv, not shown: small tags and cut ends, also called S009-F7.44.20 humanized antibody VH1 + VL1) scFv: EVQLVQSGAEVKKPGASVKVSCKASGYTFTDYNMDWVRQAPGQGLEWMGDINPSTGGTIYNQKFNGRVTMTEDKSTSTVYMELSSLRSEDTAVYYCARRRIGTGYFDVWGQGTTVTVSSGGGGSGGGGSGGGGSEIVLTQSPDFQSVTPKEKVTITCSASSSVISSYLSWYQQKPDQSPKLLIYRTSNLASGVPSRFSGSGSGTDFTLTINSLEAEDAATYYCHQWSSFPYTFGGGTKVEIK | – |
| 3.06 | 0.05 | 0.04 | 0.95 | 0.16 | 0.11 | 2.22 | 1.26 | 0.05 | 0.04 | 0.05 | 2.71 | 2.35 | 0.05 | F7.44.20-H2 (scFv, not shown: small tags and cut ends, also called S009-F7.44.20 humanized antibody VH1 + VL2) scFv: EVQLVQSGAEVKKPGASVKVSCKASGYTFTDYNMDWVRQAPGQGLEWMGDINPSTGGTIYNQKFNGRVTMTEDKSTSTVYMELSSLRSEDTAVYYCARRRIGTGYFDVWGQGTTVTVSSGGGGSGGGGSGGGGSEIVLTQSPDFQSVTPKEKVTITCSASSSVISSYLSWYQQKPDQSPKLLIYRTSNLASGVPSRFSGSGSGTDYTLTINSLEAEDAATYYCHQWSSFPYTFGGGTKVEIK | – |
| 2.94 | 0.04 | 0.04 | 0.8 | 0.19 | 0.11 | 2.05 | 1.3 | 0.05 | 0.04 | 0.05 | 3.01 | 2.27 | 0.04 | F7.44.20-H5 (scFv, not shown: small tags and cut ends, also called S009-F7.44.20 humanized antibody VH1a + VL1) scFv: EVQLVQSGAEVKKPGASVKVSCKASGYTFTDYNMDWVRQAPGQGLEWMGDINPSTGGTIYNQKFQGRVTMTEDKSTSTVYMELSSLRSEDTAVYYCARRRIGTGYFDVWGQGTTVTVSSGGGGSGGGGSGGGGSEIVLTQSPDFQSVTPKEKVTITCSASSSVISSYLSWYQQKPDQSPKLLIYRTSNLASGVPSRFSGSGSGTDFTLTINSLEAEDAATYYCHQWSSFPYTFGGGTKVEIK | – |
| 3.04 | 0.05 | 0.05 | 1.31 | 0.37 | 0.21 | 2.15 | 1.95 | 0.07 | 0.05 | 0.05 | 2.91 | 2.12 | 0.05 | F7.44.20-H6 (scFv, not shown: small tags and cut ends, also called S009-F7.44.20 humanized antibody VH1a + VL2) scFv: EVQLVQSGAEVKKPGASVKVSCKASGYTFTDYNMDWVRQAPGQGLEWMGDINPSTGGTIYNQKFQGRVTMTEDKSTSTVYMELSSLRSEDTAVYYCARRRIGTGYFDVWGQGTTVTVSSGGGGSGGGGSGGGGSEIVLTQSPDFQSVTPKEKVTITCSASSSVISSYLSWYQQKPDQSPKLLIYRTSNLASGVPSRFSGSGSGTDYTLTINSLEAEDAATYYCHQWSSFPYTFGGGTKVEIK | – |
| – | – | – | – | – | – | – | – | – | – | – | – | – | – | S009-F2.58.8 (antibody, human IgG1, kappa, V domains shown, human-murine chimeric antibody, human IgG1/kappa constant regions) VH: QVQLLQSGAELAKPGASVKLSCKASGYTFTSYWVHWVKQRPGQGLEWIGYINPNSGYTKYNQKFKDKATLTADKSSSTAYMQLSSLTYEDSAVYYCADHYYGSSRDYFDYWGQGTTLTVSS VL: QIVLTQSPAIMSASPGEKVTMTCSASSSVSYMYWYQQRPGSSPRLLIYDTSNLASGVPVRFSGSGSGTSYSLTISRMEAEDAATYYCQQWNSYPYTFGGGTKLEIKR | EC50 [1]: 1.82 nM; Maximum mean fluorescence intensity [1]: 13100; Maximum mean fluorescence intensity [2]: 366; binding result [2]: no binding; EC50 [3]: 3.5 nM; Maximum mean fluorescence intensity [3]: 141000 |
